The values below come from the Immune Epitope Database (IEDB).

In assay [1] the target is HLA-A*02:01. The experiment in a line: IEDB peptide-MHC binding, purified MHC/competitive/fluorescence; ≥ and ≤ were set here for values at or beyond the usual limits of such assays. Particulars: source organism: Zaire ebolavirus.
The next assay deals with HLA-B*07:02. The assay is described as above.
The target in the next assay is HLA-A*24:03. In words: IEDB peptide-MHC binding, purified MHC/direct/fluorescence; filed as Kd, often an IC50 or EC50 that approximates it; ≥ and ≤ were set here for values at or beyond the usual limits of such assays. As to conditions: source organism: Vibrio cholerae.
Another assay addresses HLA-C*14:02. The assay is described as above. As to conditions: source organism: Vibrio cholerae 2740-80.
The next assay concerns the target HLA-C*15:02. Described as above. As to conditions: source organism: Vibrio cholerae 2740-80.
The next assay has as its target HLA-A*24:02. In words: IEDB peptide-MHC binding, purified MHC/competitive/fluorescence; ≥ and ≤ were set here for values at or beyond the usual limits of such assays.
Assay [2] addresses HLA-A*11:01. In words: IEDB peptide-MHC binding, purified MHC/competitive/fluorescence; filed as Kd, often an IC50 or EC50 that approximates it; ≥ and ≤ were set here for values at or beyond the usual limits of such assays. As to conditions: source organism: Influenza A virus (A/swine/Hannover/1/1981(H1N1)).
Another assay has as its target HLA-A*03:01. The experiment in a line: IEDB peptide-MHC binding, purified MHC/competitive/fluorescence; ≥ and ≤ were set here for values at or beyond the usual limits of such assays. As to conditions: source organism: Variola virus.
The target of assay [3] is HLA-A*11:01. Described as above. Particulars: source organism: Variola virus.
Assay [4] deals with HLA-A*02:01. In words: IEDB peptide-MHC binding, purified MHC/competitive/radioactivity; filed as Kd, often an IC50 or EC50 that approximates it; ≥ and ≤ were set here for values at or beyond the usual limits of such assays. Particulars: source organism: Dengue virus 3 Sri Lanka/1266/2000.
In another assay the target is HLA-A*02:03. Described as above. Particulars: source organism: Dengue virus 3 Sri Lanka/1266/2000.
Another assay concerns the target HLA-A*02:17. Described as above. As to conditions: source organism: Dengue virus 3 Sri Lanka/1266/2000.
For another assay, the target named is HLA-B*08:01. Described as above. As to conditions: source organism: Dengue virus 3 Sri Lanka/1266/2000.
Setting [5] is: source organism: Zaire ebolavirus.
Where [6] appears, read: source organism: Sudan ebolavirus.

Turning to RPIQNVPGP, the IC50 with HLA-A*02:01 [1] is at least 465000 nM; in the assay with HLA-B*07:02 (setting [5]) it was 28700 nM.

For RFNNLTVYF, the Kd in the assay with HLA-A*24:03 was 3.3 nM; with HLA-C*14:02 it was 2860 nM; with HLA-C*15:02 it was at least 20000 nM.

SPGMVPLHI: the results for the IC50 in the assay with HLA-A*24:02 (setting [6]) and in the assay with HLA-B*07:02 (setting [6]) were 24400 nM and 6660 nM, respectively.

FVFTLTVPSER showed a Kd with HLA-A*11:01 [2] of 2840 nM.

The sequence RPQKIWMAP displayed an IC50 with HLA-B*07:02 (setting [5]) of 7100 nM.

As for ADDETSSLP, the IC50 in the assay with HLA-B*07:02 (setting [5]) was at least 174000 nM.

In the case of SNRTPTVAP, the values for the IC50 with HLA-A*02:01 [1], with HLA-A*24:02 (setting [5]) and with HLA-B*07:02 (setting [5]) were at least 189000 nM, at least 94200 nM and 41500 nM, respectively.

IFSAWISHR: the IC50 in the assay with HLA-A*03:01 is 1010 nM; with HLA-A*11:01 [3] it was at least 70700 nM; with HLA-A*24:02 (source organism: Variola virus), 40.9 nM; with HLA-B*07:02 (source organism: Variola virus) it was at least 577000 nM.

In the case of CLMMILPAA, the Kd stood at 1.21 nM with HLA-A*02:01 [4], 1.05 nM with HLA-A*02:03, 438 nM in the assay with HLA-A*02:17 and 1070 nM with HLA-B*08:01.
